In PMC5486983:

Substrate: O=C(O)c1c[nH]c2ccccc12
Experiment: LC-MS of adenylate
Assay type: biochemical, Caenorhabditis elegans
Details: with ATP and coenzyme A; adenylate formed, no CoA ester

B1: ACS-7 (Caenorhabditis elegans) (protein)
chain: MIFHGEQLENHDKPVHEVLLERFKVHQEKDPDNVAFVTAENEDDSLGFQQLGKKVLQISEWFVENGYKKGDVFLLASYNNWRCFAAALGAWRAGLIVSAAASQFTSFEMNYQIEDSQSQVILVDKHTLPVVQEACKNLKFVKQIISISANPPSPVIKFDVLTSRLVRNLKMPLIDPKNDIVFLPYSSGTTGKPKGVMISHLNFSMMLESSLRFFDANAKAIGLPPDFVLPYDLHFLPMYHAMGMFRTLLTSYRGTTQIMFTKFDMELMLKNIEKYSIMVLSLVPAIAVRMLNSPLLQKYDVSSLVSVTVGSAPFPESASKKLKQLLPNVNIVQGYGMTELTFATHLQSPGSPDGSVGRLVPGTSMKVKKEDGTLCGPHEIGELWIKGPQMMKGYWKKEQQTNELLDEHGFMRTGDIVYFDKNGETFICDRIKELIKVNAKQVAPAELESVILEHDDVADVCVFGVDDASSGERPVACVVSKRGRDMETSKAIMKHINQKLARYKHIKEIEFVSEIMRTGTGKLLRRAMKKAFLDAKKAKL
Work on B1 yielded a Km of 270 ± 90 µM.
